The text below walks through data of patent US20190134143A1 (BIOCELLS BEIJING BIOTECH, published 2019).

For this test, the target named is T1, PDZ1/2 domain.
T1 construct: domain: PDZ1/2; also called PDZ1/2 protein
The test can be described thus: SPR, Biacore 3000; PDZ1/2 amine-coupled to the chip, peptide as analyte, 1:1 binding model.

T1 sequence (P78352 65-246): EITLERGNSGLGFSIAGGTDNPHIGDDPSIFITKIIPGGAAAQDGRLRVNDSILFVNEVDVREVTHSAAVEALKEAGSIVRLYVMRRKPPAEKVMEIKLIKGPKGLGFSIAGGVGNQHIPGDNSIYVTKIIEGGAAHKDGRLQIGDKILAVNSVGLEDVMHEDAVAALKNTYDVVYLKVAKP
Protocol: The immobile phase molecule (ligand) was PDZ1/2 protein with a molecular weight of approximately 20 kD at a concentration of 2 mg/ml. The mobile phase molecule (analyte) was a polypeptide to be screened with a molecular weight of approximately 2 kD at a concentration of 10 mg/ml. The CMS chip was used for fixation using a Biacore 3000 instrument. The electrophoresis buffer was PBS plus 0.005% Tween 20. Fixation was carried out using an amino coupling method. The concentration of the ligand was 10 μg/ml. The fixation buffer was 10 mM sodium acetate, pH 4.0. Fixed amount was 1400 RU, which was fixed to flow cell 2. The used flow rate was 10 μl/ml and the ligand was loaded for 1 minute. 10 mM Gly at pH 2.0+2.5 was used as a regenerant. Regeneration was carried out at a flow rate of 30 μl/min. The loading time was 30 s.

B1: chimeric peptide YE-NA-1 (peptide)
peptide: YGRKKRRQRRRYEKLSSIESDV
With B1, the Kd (usually a measure of binding affinity in units of concentration) came to 54.4 nM.
